Data taken from patent US20130095108.

T1: Corn Trypsin Inhibitor (CTI, Calbiochem), P01088
T1 chain: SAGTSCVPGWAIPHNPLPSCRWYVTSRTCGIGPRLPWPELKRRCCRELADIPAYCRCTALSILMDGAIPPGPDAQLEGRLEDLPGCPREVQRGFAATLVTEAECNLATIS


What was measured:
[1] = molecular target: T1, Corn Trypsin Inhibitor (CTI, …)
[2] = molecular target: Peptide TCK from uPAR's domain 2 (position 196-214)
[3] = molecular target: Peptide LRG20 (position 166-185) from uPAR's domain 2

Protein	FXII activity assay using chromogenic substrate [1]	[3H]-thymidine incorporation in murine lung fibroblasts (random peptide)	[3H]-thymidine incorporation in murine lung fibroblasts [2]	[3H]-thymidine incorporation in murine lung fibroblasts [1]	p44/42 and Akt phosphorylation (Western blot) in murine lung fibroblasts [1]	[3H]-thymidine incorporation in murine lung fibroblasts [3]
FXII in bronchoalveolar lavage fluid (BALF) from IPF patients (protein) IPPWEAPKEHKYKAEEHTVVLTVTGEPCHFPFQYHRQLYHKCTHKGRPGPQPWCATTPNFDQDQRWGYCLEPKKVKDHCSKHSPCQKGGTCVNMPSGPHCLCPQHLTGNHCQKEKCFEPQLLRFFHKNEIWYRTEQAAVARCQCKGPDAHCQRLASQACRTNPCLHGGRCLEVEGHRLCHCPVGYTGAFCDVDTKASCYDGRGLSYRGLARTTLSGAPCQPWASEATYRNVTAEQARNWGLGGHAFCRNPDNDIRPWCFVLNRDRLSWEYCDLAQCQTPTQAAPPTPVSPRLHVPLMPAQPAPPKPQPTTRTPPQSQTPGALPAKREQPPSLTRNGPLSCGQRLRKSLSSMTRVVGGLVALRGAHPYIAALYWGHSFCAGSLIAPCWVLTAAHCLQDRPAPEDLTVVLGQERRNHSCEPCQTLAVRSYRLHEAFSPVSYQHDLALLRLQEDADGSCALLSPYVQPVCLPSGAARPSETTLCQVAGWGHQFEGAEEYASFLQEAQVPFLSLERCSAPDVHGSSILPGMLCAGFLEGGTDACQGDSGGPLVCEDQAAERRLTLQGIISWGSGCGDRNKPGVYTDVAYYLAWIREHTVS	The specificity of performed assay was proved by blockade of FXII activity by its inhibitor, Corn Trypsin Inhibitor (CTI)					
FXIIa (activated factor XII; American Diagnostica, Stamford, Conn.) (protein) IPPWEAPKEHKYKAEEHTVVLTVTGEPCHFPFQYHRQLYHKCTHKGRPGPQPWCATTPNFDQDQRWGYCLEPKKVKDHCSKHSPCQKGGTCVNMPSGPHCLCPQHLTGNHCQKEKCFEPQLLRFFHKNEIWYRTEQAAVARCQCKGPDAHCQRLASQACRTNPCLHGGRCLEVEGHRLCHCPVGYTGAFCDVDTKASCYDGRGLSYRGLARTTLSGAPCQPWASEATYRNVTAEQARNWGLGGHAFCRNPDNDIRPWCFVLNRDRLSWEYCDLAQCQTPTQAAPPTPVSPRLHVPLMPAQPAPPKPQPTTRTPPQSQTPGALPAKREQPPSLTRNGPLSCGQRLRKSLSSMTRVVGGLVALRGAHPYIAALYWGHSFCAGSLIAPCWVLTAAHCLQDRPAPEDLTVVLGQERRNHSCEPCQTLAVRSYRLHEAFSPVSYQHDLALLRLQEDADGSCALLSPYVQPVCLPSGAARPSETTLCQVAGWGHQFEGAEEYASFLQEAQVPFLSLERCSAPDVHGSSILPGMLCAGFLEGGTDACQGDSGGPLVCEDQAAERRLTLQGIISWGSGCGDRNKPGVYTDVAYYLAWIREHTVS		peptide TCK from domain 2 (position 196-214) and random peptide had no effect on FXIIa induced proliferation	peptide TCK from domain 2 (position 196-214) and random peptide had no effect on FXIIa induced proliferation	FXII-induced proliferation was blocked by FXIIa specific inhibitor, CTI	CTI attenuated p44/42 and Akt phosphorylation after 30 min of FXIIa exposure	Peptide LRG20 (position 166-185) from uPAR's domain 2 blocked increase in DNA synthesis after FXIIa stimulation
